This note sets out measurements from paper PMC6392013 (Methods in molecular biology (Clifton, N.J.), 2012).

In this assay the target is ubiquitin (UniProt P0CG48 1-76). The assay is described as follows: NMR intermolecular NOESY.

B1: S5a (196–306) (domain or fragment, UniProt P55036 196-306, looked up)
chain: MLGLGASDFEFGVDPSADPELALALRVSMEEQRQRQEEEARRAAAASAAEAGIATTGTEDSDDALLKMTISQQEFGRTGLPDLSSMTEEEQIAYAMQMSLQGAEFGQAESA
Turning to B1, the binding result was “binds”.
